Assay results from patent US20260242839A1, “GLYCOSIDE PRODUCT BIOSYNTHESIS AND RECOVERY” (Manus Bio Inc., priority 2023, published 2026).
Positions count from the first letter of the chain named. Names may count otherwise. “And” between values parts separate entries of the source, which are not always exact repeats. Identical values can stand only once.

B1: V456W: mutation to UGT enzyme of SEQ ID NO: 13 (protein)
chain: MATKGSSGMSLAERFWLTLSRSSLVVGRSCVEFEPETVPLLSTLRGKPITFLGLMPPLHEGRREDGEDATVRWLDAQPAKSVVYVALGSEVPLGVEKVHELALGLELAGTRFLWALRKPTGVSDADLLPAGFEERTRGRGVVATRWVPQMSILAHAAVGAFLTHCGWNSTIEGLMFGHPLIMLPIFGDQGPNARLIEAKNAGLQVARNDGDGSFDREGVAAAIRAVAVEEESSKVFQAKAKKLQEIVADMACHERYIDGFIQQLRSYKDDSGYSSSYAAAAGMHVVICPWLAFGHLLPCLDLAQRLASRGHRVSFVSTPRNISRLPPVRPALAPLVAFVALPLPRVEGLPDGAESTNDVPHDRPDMVELHRRAFDGLAAPFSEFLGTACADWVIVDVFHHWAAAAALEHKVPCAMMLLGSAEMIASIADERLEHAETESPAAAGQGRPAAAPTFEWARMKLIR
B2: V456M: mutation to UGT enzyme of SEQ ID NO: 13 (protein)
chain: B1 chain with W456M
B3: G5N: mutation to UGT enzyme of SEQ ID NO: 13 (protein)
chain: B1 chain with G5N, W456V
B4: M55L: mutation to UGT enzyme of SEQ ID NO: 13 (protein)
chain: B1 chain with M55L, W456V
B5: S20E: mutation to UGT enzyme of SEQ ID NO: 13 (protein)
chain: B1 chain with S20E, W456V
B6: K99F: mutation to UGT enzyme of SEQ ID NO: 15 (protein)
chain: MARRTKNSSGMSLAERFWLTLSRSSLVVGRSCVEFEPETVPLLSTLRGKPITFLGLMPPLPEGRREDGEDATVRWLDAQPAKSVVYVALGSEVPLGVEFVHELALGLELAGTRFLWALRKPTGVSDADLLPAGFEERTRGRGVVATRWVPQMSILAHAAVGAFLTHCGWNSTIEGLMFGHPLIMLPITGDQGPNARLIEAKNAGLQVARNDGDGSFDREGVAAAIRAVAVEEESSKVFQEKAKKLQEIVADMACHERYIDGFIQQLRSYKDDSGYSSSYAAAAGMHVVICPWLAFGHLLPCLDLAQRLASRGHRVSFVSTPRNISRLPPVRPALAPLVAFVALPLPRVEGLPDGAESTNDVPHDRPDMVELHRRAFDGLAAPFSEFLGTACADWVIVDSFHHWAAAAALEHKVPCAMMFLGSAEMIASIADERLEHAETESPAAAGQGRPAAAPTFEVARMKLIR
B7: G189Y: mutation to UGT enzyme of SEQ ID NO: 15 (protein)
chain: B6 chain with F99K, G189Y
B8: S310T: mutation to UGT enzyme of SEQ ID NO: 15 (protein)
chain: B6 chain with F99K, S310T
B9: H402W: mutation to UGT enzyme of SEQ ID NO: 15 (protein)
chain: B6 chain with F99K, H402W
B10: P442G: mutation to UGT enzyme of SEQ ID NO: 15 (protein)
chain: B6 chain with F99K, P442G
B11: P442D: mutation to UGT enzyme of SEQ ID NO: 15 (protein)
chain: B6 chain with F99K, P442D
B12: A451R: mutation to UGT enzyme of SEQ ID NO: 15 (protein)
chain: B6 chain with F99K, A451R
B13: M152A_S153A: SEQ ID NO: 15 with mutations M152A, S153A (protein)
chain: B6 chain with F99K, M152A, S153A
B14: L298F: mutation to UGT enzyme of SEQ ID NO: 15 (protein)
chain: B6 chain with F99K, L298F
B15: M425S: mutation to UGT enzyme of SEQ ID NO: 15 (protein)
chain: B6 chain with F99K, M425S
B16: K99E: mutation to UGT enzyme of SEQ ID NO: 15 (protein)
chain: B6 chain with F99E
B17: A81G: mutation to UGT enzyme of SEQ ID NO: 15 (protein)
chain: B6 chain with A81G, F99K
B18: S125V: mutation to UGT enzyme of SEQ ID NO: 15 (protein)
chain: B6 chain with F99K, S125V
B19: A81K: mutation to UGT enzyme of SEQ ID NO: 15 (protein)
chain: B6 chain with A81K, F99K
B20: L205Y: mutation to UGT enzyme of SEQ ID NO: 15 (protein)
chain: B6 chain with F99K, L205Y
B21: G96M: mutation to UGT enzyme of SEQ ID NO: 15 (protein)
chain: B6 chain with G96M, F99K
B22: SEQ ID NO: 83: UGT73C33 (Glycyrrhiza uralensis) (protein, listed as Glycyrrhiza sp.)
chain: MAVFQANQPHFVLFPLMAQGHIIPMIDIARLLAQRGAIVTIFTTPKNASRFTSVLSRAVSSGLQIRLVHLHFPSKEAGLPEGCENLDMVASHDMICNIFQAIRMLQKQAEELFETLTPKPSCIISDFCIPWTTQVAEKHHIPRISFHGFSCFCLHCMLKIHTSKVLEGITSESEYFTVPGIPDQIQVTKQQVPGPMIDEMKEFGEQMRDAEIRSYGVIINTFEELEKAYVNDYKKERNGKVWCIGPVSLCNKDGLDKAQRGNKASISEHHCLEWLDLQQPNSVIYVCLGSLCNLTPPQLMELALGLEATKRPFIWVIREGNKFEELEKWISEEGFEERIKGRGLIIRGWAPQVLILSHPSIGGFLTHCGWNSTLEGVTAGVPMVTWPLFADQFLNEKLVTQVLRIGVSLGVDVPLKWGEEEKVGVQVKKEGIEKAICMVMDEGEESKERRERAKELSEMAKRAVEKDGSSHLNMTMLIQDIMQQSSSKVET

Key:
steviol glycoside [1] = assay: steviol glycoside bioconversion by E. coli expressing individual mutations of UGT SEQ ID NO: 13; assay type: cell-based; conditions: fold improvement of % conversion vs parent UGT SEQ ID NO: 13; stevia leaf extract and glucose fed; 37° C., 48 hr
Text: A UGT enzyme referred to as MbUGT1,2 is described in U.S. Pat. No. 10,743,567, which is hereby incorporated by reference. An engineered version of MbUGT1,2 (SEQ ID NO: 13) is described in US 2020/0087692, which is hereby incorporated by reference in its entirety. The UGT enzyme of SEQ ID NO: 13 was further engineered to improve activity for steviol glycoside bioconversion. […] Fold improvement is with respect to % steviol glycoside conversion of the parent UGT enzyme (SEQ ID NO: 13). SEQ ID NO: 14 has the following mutations from SEQ ID NO: 13: G5N, F186T, V397S. Stevia leaf extract and glucose were fed to the bioconversion strains. Bioconversion took place at 37° C. for 48 hr. Data were quantified by reverse phase LC DAD to quantify conversion of steviol glycosides.
(§1) Fold improvement (FI) is with respect to % steviol glycoside conversion.

steviol glycoside [2] = assay: steviol glycoside bioconversion by E. coli expressing individual mutations of UGT SEQ ID NO: 15; assay type: cell-based; conditions: fold improvement of % conversion vs parent UGT SEQ ID NO: 15; stevia leaf extract and glucose fed; 37° C., 48 hr
Protocol: Fold improvement is with respect to % steviol glycoside conversion of the parent UGT enzyme of SEQ ID NO: 15. SEQ ID NO: 16 has the following mutations from SEQ ID NO: 15: M152A, S153A. Stevia leaf extract and glucose were fed to the bioconversion strains. Bioconversion took place at 37° C. for 48 hr. Data were quantified by reverse phase LC DAD to quantify conversion of steviol glycosides.
as §1

mogrol = assay: primary glycosylation at C3 and C24 hydroxyls of mogrol by cells expressing UGT enzymes; assay type: cell-based, E. coli; conditions: mogrol fed; 37° C., 48 hrs; LCMS/MS
Protocol: Specifically, mogrol was fed to cells expressing various UGT enzymes. Reactions were incubated at 37° C. for 48 hrs. Products were quantified by LCMS/MS with authentic standards of each compound.

Molecule	FI % Stevioside −> rebE (steviol glycoside [2])	FI % rebA −> rebD (steviol glycoside [2])	other results
B1			FI %Stevioside→rebE (steviol glycoside [1]): 1.2; FI %rebA→rebD (steviol glycoside [1]): 1.2
B2			FI %Stevioside→rebE (steviol glycoside [1]): 1.5; FI %rebA→rebD (steviol glycoside [1]): 1.5
B3			FI %Stevioside→rebE (steviol glycoside [1]): 1.5; FI %rebA→rebD (steviol glycoside [1]): 1.5
B4			FI %Stevioside→rebE (steviol glycoside [1]): 1.1; FI %rebA→rebD (steviol glycoside [1]): 1.0
B5			FI %Stevioside→rebE (steviol glycoside [1]): 1.2; FI %rebA→rebD (steviol glycoside [1]): 1.1
B6	1.08	1.08	
B7	1.04	1.04	
B8	1.04	1.04	
B9	1.07	1.09	
B10	1.01	1.01	
B11	1.18	1.19	
B12	0.99	1.02	
B13	1.32	1.26	
B14	1.01	0.97	
B15	1.03	1.02	
B16	1.02	1.03	
B17	1.09	1.04	
B18	1.16	1.13	
B19	1.02 and 1.01	1.04 and 1.02	
B20	1.03	1.04	
B21	1.03 and 1.10	1.01 and 1.10	
B22			C3 O-Glucosylation (mogrol): No; C24 O-Glucosylation (mogrol): Yes
